# Measurements taken from article PMC7769281, “The plasticity of the pyruvate dehydrogenase complex confers a labile structure that is associated with its catalytic activity” (PLoS ONE, 2020).
# Molecular target: the molecule itself
# Assay: SEC; FLAG-purified E3-5xFLAG on Superose 6 in 350 mM NaCl; peak fraction (16 ml, ~230 kDa) analysed by MudPIT
protein,measurement,value
"yeast PDC E3, Lpd1-5xFLAG (natural protein, S. cerevisiae, UniProt P09624 22-499, looked up, Dihydrolipoamide dehydrogenase (E3, Lpd1), S. cerevisiae BY4741; also called E3-5xFLAG; yPDC-E3) TINKSHDVVIIGGGPAGYVAAIKAAQLGFNTACVEKRGKLGGTCLNVGCIPSKALLNNSHLFHQMHTEAQKRGIDVNGDIKINVANFQKAKDDAVKQLTGGIELLFKKNKVTYYKGNGSFEDETKIRVTPVDGLEGTVKEDHILDVKNIIVATGSEVTPFPGIEIDEEKIVSSTGALSLKEIPKRLTIIGGGIIGLEMGSVYSRLGSKVTVVEFQPQIGASMDGEVAKATQKFLKKQGLDFKLSTKVISAKRNDDKNVVEIVVEDTKTNKQENLEAEVLLVAVGRRPYIAGLGAEKIGLEVDKRGRLVIDDQFNSKFPHIKVVGDVTFGPMLAHKAEEEGIAAVEMLKTGHGHVNYNNIPSVMYSHPEVAWVGKTEEQLKEAGIDYKIGKFPFAANSRAKTNQDTEGFVKILIDSKTERILGAHIIGPNAGEMIAEAGLALEYGASAEDVARVCHAHPTLSEAFKEANMAAYDKAIHC",binding result,binds
